The source of these data is publication PMC6319605 (Nature microbiology, 2018).

This test deals with Ubiquitin (Ub-propargylamide activity-based probe) (UniProt P0CG48 1-76, C-terminal propargylamide (Ub-PA), covalently linked to ChlaDUB1). The experiment in a line: crystal structure.

B1: Chlamydia trachomatis ChlaDUB1 (130-401) (enzyme)
chain: PVKTQEDLLPLVPEQVFVEMYEDMARRQTIEALVPAWDSDIIFKCLCYFHTLYPGLIPLETFPPATIFNFKQKIISILEDKKAVLRGEPIKGPLPICCSKENYRRHLQRTTLLPVFMWYHPTPKTLSDTMQTMKQLAIKGSVGASHWLLVIVDIQARRLVYFDSLYNYVMPPENMKKELQSFAQQLDQVYPAYDSKKFSVKIAAKEVIQRGSGSSCGAWCCQFLHWYLKDPLTDALNDLPVDSVERHENLASFVQACEAAVQDLPELSWPEA
modifications: covalently linked to one Ub molecule through the Ub-propargylamide probe (in the enzymatic S1 site)
As for B1, the binding result is “binds”.
